The test addresses T1, Saccharomyces cerevisiae Snf7 mutant (R52E) (Saccharomyces cerevisiae, UniProt P39929 1-240, R52E).
T1 sequence (looked up): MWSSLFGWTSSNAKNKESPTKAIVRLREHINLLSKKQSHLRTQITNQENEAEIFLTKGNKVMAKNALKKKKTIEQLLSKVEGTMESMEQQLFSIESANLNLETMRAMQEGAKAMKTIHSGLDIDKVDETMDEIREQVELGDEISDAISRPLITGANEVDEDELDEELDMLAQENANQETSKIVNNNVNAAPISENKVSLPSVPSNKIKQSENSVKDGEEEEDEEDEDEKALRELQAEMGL
Put plainly: co-sedimentation.

B1: Saccharomyces cerevisiae Vps2 (natural protein, UniProt P36108 1-232, looked up)
chain: MSLFEWVFGKNVTPQERLKKNQRALERTQRELEREKRKLELQDKKLVSEIKKSAKNGQVAAAKVQAKDLVRTRNYIQKFDNMKAQLQAISLRIQAVRSSDQMTRSMSEATGLLAGMNRTMNLPQLQRISMEFEKQSDLMGQRQEFMDEAIDNVMGDEVDEDEEADEIVNKVLDEIGVDLNSQLQSTPQNLVSNAPIAETAMGIPEPIGAGSEFHGNPDDDLQARLNTLKKQT
For the molecule B1, the binding result was “binds”.

B2: Saccharomyces cerevisiae Vps24 (natural protein, UniProt P36095 1-224, looked up)
chain: MDYIKKAIWGPDPKEQQRRIRSVLRKNGRNIEKSLRELTVLQNKTQQLIKKSAKKNDVRTVRLYAKELYQINKQYDRMYTSRAQLDSVRMKIDEAIRMNTLSNQMADSAGLMREVNSLVRLPQLRNTMIELEKELMKSGIISEMVDDTMESVGDVGEEMDEAVDEEVNKIVEQYTNEKFKNVDQVPTVELAANEEEQEIPDEKVDEEADRMVNEMRERLRALQN
In the case of B2, the binding result is recorded as “binds”.

The values above are taken from paper doi:10.1101/2024.03.13.584854 (bioRxiv, 2024).
